The source of these data is US6770631 (ADPROTECH, dated 2004).

For test [1], the target named is T1, complement receptor-2 (CR2) on the surface of Raji cells (UniProt P20023 21-1033, limits assumed).
T1 construct: whole, on cells; also called CD21; complement receptor type 2
T1 sequence (looked up): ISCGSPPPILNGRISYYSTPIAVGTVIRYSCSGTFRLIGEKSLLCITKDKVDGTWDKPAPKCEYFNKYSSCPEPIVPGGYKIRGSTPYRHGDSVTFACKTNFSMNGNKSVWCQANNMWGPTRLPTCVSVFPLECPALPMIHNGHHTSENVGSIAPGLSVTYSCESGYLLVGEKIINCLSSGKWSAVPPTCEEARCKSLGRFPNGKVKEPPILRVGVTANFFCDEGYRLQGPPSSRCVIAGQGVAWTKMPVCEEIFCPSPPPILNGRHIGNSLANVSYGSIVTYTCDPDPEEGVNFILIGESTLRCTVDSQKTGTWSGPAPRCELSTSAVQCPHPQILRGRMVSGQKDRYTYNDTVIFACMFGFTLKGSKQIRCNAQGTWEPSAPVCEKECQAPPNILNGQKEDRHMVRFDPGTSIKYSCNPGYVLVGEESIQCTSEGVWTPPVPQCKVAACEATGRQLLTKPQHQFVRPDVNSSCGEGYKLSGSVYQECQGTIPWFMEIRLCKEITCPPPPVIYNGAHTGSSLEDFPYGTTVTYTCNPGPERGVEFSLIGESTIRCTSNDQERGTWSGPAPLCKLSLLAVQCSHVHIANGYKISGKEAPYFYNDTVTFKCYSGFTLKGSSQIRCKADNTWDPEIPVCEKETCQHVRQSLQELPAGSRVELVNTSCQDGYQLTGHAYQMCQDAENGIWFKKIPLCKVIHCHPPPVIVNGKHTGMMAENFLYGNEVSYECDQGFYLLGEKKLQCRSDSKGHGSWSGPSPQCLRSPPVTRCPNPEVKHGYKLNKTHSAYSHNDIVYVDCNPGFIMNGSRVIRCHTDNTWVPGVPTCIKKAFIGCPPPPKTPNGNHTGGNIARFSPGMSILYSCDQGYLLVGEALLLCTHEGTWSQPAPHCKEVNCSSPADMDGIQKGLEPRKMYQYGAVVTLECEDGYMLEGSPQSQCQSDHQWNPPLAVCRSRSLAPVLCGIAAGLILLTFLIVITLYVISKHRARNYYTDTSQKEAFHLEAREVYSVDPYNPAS
Briefly: competitive binding on Raji cells against 1 nM 125I-HEL-C3d, 1 h at 4 C, cell-pellet radioactivity. Here is the method: The cells are then centrifuged through a dibutyl-diiso-octyl-phthalate cushion, and the amount of radioactivity associated with the pellet determined.
The binding was performed as described in General Methods Section (xvii) (a).

For the next test, the target named is T2, co-ligated CR2.IgG1.
T2 construct: also called CR2; IgGl
Briefly: competitive ELISA: plate-bound C3d, 125 pM CR2.IgG1, soluble C3d titrated, HRP anti-mouse IgG1 detection. As for the experimental part: C3d is used to coat 96-well microtitre plates at 5 µg/ml in O. 1M NaHCO_3 by incubating overnight at 4° C. The plates are then blocked in 1% BSA 0.1% Tween-20 in PBS for 1 h at room temperature subsequently they are incubated with either 25 µl/well of C3d or from the C3d containing molecule under test in a dose response manner. To the wells is added 25 µl/well of a sub-saturating concentration of co-ligated CR2. […] The plates are then washed three times with PBS containing 0.1% (v/v) Tween-20. The amount of CR2 bound to the immobilised C3d is detected using a 1:3000 dilution of HRP-labeled goat anti-mouse-IgGl-antibody in PBS containing 0.1% (v/v)Tween-20 and incubated for 1 h at room temperature the wells were then washed as described above. The presence of HRP-antibody is detected using the TMB Peroxidase EIA Substrate Kit according to the manufacturer's instructions (Bio-Rad, UK).
The ELISA was performed as described in General Methods Section (xvii) (b). The monomer gave a $I50$ of 2 µM for the baculovirus/Sf9 material. A similar figure was obtained for the COS cell produced C3d.
On the technique in general: In an ELISA, binding on a coated surface is turned into a signal by an enzyme label.

B1: C3d expressed in COS cells (ligand)
chain: not shown
notes: domain: C3d; Comparator material; also called COS cell produced C3d
A word on the IC50: it is the point on the concentration scale where inhibition reaches its midpoint. For the molecule B1, the IC50 in test [1] worked out at 2500 nM.

B2: C3d monomer produced in baculovirus/Sf9 cells (murine C3d with C-terminal Glu-Glu-Phe tag) (ligand)
chain: not shown
notes: The end residue 330 was counted from the printed appendix (33 rows of 10 residues); Measured mass 34279 Da; also called baculovirus/Sf9 C3d; C3d1
In the case of B2, the IC50 in test [1] came to 2500 nM; in the test with co-ligated CR2.IgG1, 2000 nM.
